Assays:
[1] = biological target: T1, soluble human FcRn (extra-cellular domain of heavy chain and β2M) (human, UniProt P55899 24-297; P61769 21-119); test: SPR 8500, hFcRn pH 6
T1 construct: also called shFcRn; soluble hFcRn

soluble rat FcRn [2] = biological target: T2, soluble rat FcRn (rat, UniProt P13599 23-298; P07151 21-119); test: SPR 8500, rat FcRn pH 7.4
T2 construct: Soluble protein; whole entries named; also called sol rat FcRn
T2 sequence: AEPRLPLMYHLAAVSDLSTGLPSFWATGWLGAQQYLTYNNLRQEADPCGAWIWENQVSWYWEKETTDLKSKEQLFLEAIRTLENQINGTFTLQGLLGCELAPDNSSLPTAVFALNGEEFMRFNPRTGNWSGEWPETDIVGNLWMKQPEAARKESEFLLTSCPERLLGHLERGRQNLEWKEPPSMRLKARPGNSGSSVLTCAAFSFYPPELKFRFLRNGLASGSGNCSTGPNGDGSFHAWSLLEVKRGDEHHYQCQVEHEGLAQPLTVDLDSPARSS
T2 sequence (b2m): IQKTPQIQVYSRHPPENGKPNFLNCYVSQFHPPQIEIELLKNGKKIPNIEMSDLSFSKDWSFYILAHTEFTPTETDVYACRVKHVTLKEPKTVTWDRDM

soluble rat FcRn [3] = biological target: T2, soluble rat FcRn; test: SPR 8500, rat FcRn pH 7.4; rat FcRn pH 7.4
[4] = biological target: T1, soluble human FcRn (extra-cellular …); test: SPR, sol Fab, pH 6.0
soluble rat FcRn [5] = biological target: T2, soluble rat FcRn; test: SPR 8500, rat FcRn pH 6
[6] = biological target: T3, human FcRn / human β2M expressed in 293 C11 cells (human, UniProt P55899 24-365; P61769 21-119); test: FACS blocking of IgG-Fc, sol Fab, pH 6
T3 construct: HEK 293 cells engineered to overexpress FcRn; also called hFcRn (cells); hFcRn in THP-1 and Caco-2 cells

[7] = biological target: T4, rat FcRn / rat β2M expressed on cells (rat, UniProt P13599 23-366; P07151 21-119); test: FACS blocking of IgG-Fc, sol Fab, pH 6
T4 construct: also called rat FcRn (cells); rat fibroblasts expressing rat FcRn
T4 sequence: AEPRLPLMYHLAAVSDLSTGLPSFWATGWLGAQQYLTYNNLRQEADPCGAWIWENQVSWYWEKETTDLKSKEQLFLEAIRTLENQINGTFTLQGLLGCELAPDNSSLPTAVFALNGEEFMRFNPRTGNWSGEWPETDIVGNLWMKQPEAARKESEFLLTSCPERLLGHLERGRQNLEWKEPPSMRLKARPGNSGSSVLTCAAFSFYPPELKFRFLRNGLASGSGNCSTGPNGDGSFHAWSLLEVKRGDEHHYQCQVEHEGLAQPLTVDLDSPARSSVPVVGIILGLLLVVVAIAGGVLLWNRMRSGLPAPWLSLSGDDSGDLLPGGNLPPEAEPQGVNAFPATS
T4 sequence (b2m): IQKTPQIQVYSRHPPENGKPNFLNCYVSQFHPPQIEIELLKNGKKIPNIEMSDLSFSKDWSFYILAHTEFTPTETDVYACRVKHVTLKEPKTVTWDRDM

soluble rat FcRn [8] = biological target: T2, soluble rat FcRn; test: SPR 8500, sol Fab, pH 6
[9] = biological target: T1, soluble human FcRn (extra-cellular …); test: SPR 8500, sol Fab, pH 6
[10] = biological target: T1, soluble human FcRn (extra-cellular …); test: SPR 8500, hFcRn pH 7.4
[11] = biological target: T1, soluble human FcRn (extra-cellular …); test: SPR, sol Fab, pH 7.4
[12] = biological target: T1, soluble human FcRn (extra-cellular …); test: SPR 8500, hFcRn pH 6; remark: listed apart in the source
[13] = biological target: T1, soluble human FcRn (extra-cellular …); test: SPR 8500, hFcRn pH 7.4; remark: listed apart in the source
soluble rat FcRn [14] = biological target: T2, soluble rat FcRn; test: SPR 8500, rat FcRn pH 6; remark: listed apart in the source
soluble rat FcRn [15] = biological target: T2, soluble rat FcRn; test: SPR 8500, sol Fab, pH 7.5
[16] = biological target: T1, soluble human FcRn (extra-cellular …); test: SPR 8500, sol Fab, pH 7.5
[17] = biological target: T1, soluble human FcRn (extra-cellular …); test: Biacore, IgG on chip, hFcRn flowed, pH 7.4
[18] = biological target: T1, soluble human FcRn (extra-cellular …); test: Biacore, IgG on chip, hFcRn flowed, pH 6
[19] = biological target: T3, human FcRn / human β2M expressed in 293 …; test: FACS blocking, hFcRn cells, pH 6
[20] = biological target: T1, soluble human FcRn (extra-cellular …); test: Biacore, hFcRn on chip, IgG flowed, pH 6
[21] = biological target: T1, soluble human FcRn (extra-cellular …); test: Biacore, hFcRn on chip, IgG flowed, pH 7.4
[22] = biological target: T1, soluble human FcRn (extra-cellular …); test: Biacore, IgG on chip, hFcRn flowed, pH 7.4; remark: listed apart in the source

T3 sequence (P55899 24-365 limits assumed, chain 1 of 2): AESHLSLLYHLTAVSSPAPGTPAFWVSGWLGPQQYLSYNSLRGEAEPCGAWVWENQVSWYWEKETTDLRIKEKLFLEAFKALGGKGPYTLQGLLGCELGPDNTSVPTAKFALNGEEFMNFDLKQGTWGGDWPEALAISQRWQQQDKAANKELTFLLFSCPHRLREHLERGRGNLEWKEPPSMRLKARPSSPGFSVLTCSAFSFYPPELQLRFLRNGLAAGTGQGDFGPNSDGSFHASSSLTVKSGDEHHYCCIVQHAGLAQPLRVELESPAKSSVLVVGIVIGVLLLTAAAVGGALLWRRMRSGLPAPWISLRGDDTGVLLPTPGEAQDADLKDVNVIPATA
T3 sequence (P61769 21-119 limits assumed, chain 2 of 2): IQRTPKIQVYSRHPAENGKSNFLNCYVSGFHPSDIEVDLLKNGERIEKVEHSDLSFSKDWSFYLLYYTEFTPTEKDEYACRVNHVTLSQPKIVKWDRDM
T1 sequence (P55899 24-297 limits assumed, chain 1 of 2): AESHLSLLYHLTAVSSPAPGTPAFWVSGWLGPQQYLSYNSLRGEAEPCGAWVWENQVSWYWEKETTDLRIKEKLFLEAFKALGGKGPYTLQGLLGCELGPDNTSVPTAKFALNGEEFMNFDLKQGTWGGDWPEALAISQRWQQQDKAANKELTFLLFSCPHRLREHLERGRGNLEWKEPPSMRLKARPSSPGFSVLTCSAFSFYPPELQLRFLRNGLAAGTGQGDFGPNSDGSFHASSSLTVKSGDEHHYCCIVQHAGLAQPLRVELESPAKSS
T1 sequence (P61769 21-119 limits assumed, chain 2 of 2): as the sequence (P61769 21-119 limits assumed, chain 2 of 2) above

B1: 532A-M0090-F11 soluble Fab (Fab)
VH: EVQLLESGGGLVQPGGSLRLSCAASGFTFSEYAMGWVRQAPGKGLEWVSSIGSSGGQTKYADSVKGRFTISRDNSKNTLYLQMNSLRAEDTAVYYCARLSTGELYWGQGTLVTVSS
light: QSVLTQPASVSGSPGQSITISCTGTGSDVGSYNLVSWYQKYPGKAPKLIIYGDSQRPSGLSSRFSGSKSGNSASLTISGLQAEDEADYYCCSYAGSGIYVFGSGTKVTVLSQPKANPTVTLFPPSSEELQANKATLVCLISDFYPGAVTVAWKADGSPVKAGVETTKPSKQSNNKYAASSYLSLTPEQWKSHRSYSCQVTHEGSTVEKTVAPAECS
notes: sFab from phage display; CH1 not set out for the Fab; also called M90-F11 (Fab); M090-F11
In the case of B1, the Kd [1] is reported as 6.11 nM, the Kd (soluble rat FcRn [2]) is reported as 3.29 nM and the Kd (soluble rat FcRn [3]) is reported as 9.96 nM. It also gave a Kd [4] of 12 nM, a Kd (soluble rat FcRn [5]) of 31.2 nM and an IC50 [6] of 13 nM. For the same binder, the IC50 [7] was 6480 nM, the Kd (soluble rat FcRn [8]) was 31.2 nM and the Kd [9] was 9.2 nM. The Kd [10] was 7.08 nM, the “Fold Kd Improvement Over Germlined M90-F11” value [11] was 2.3 fold and the Kd [11] was 13 nM. The Kd [12] was 9.2 nM, the Kd [13] was 19.1 nM and the Kd (soluble rat FcRn [14]) was 20.3 nM. For the same binder, the Kd (soluble rat FcRn [15]) was 9.9 nM and the Kd [16] was 19.1 nM.

B2: 532A-M0090-F11 (germlined LC changes) IgG (antibody)
heavy: EVQLLESGGGLVQPGGSLRLSCAASGFTFSEYAMGWVRQAPGKGLEWVSSIGSSGGQTKYADSVKGRFTISRDNSKNTLYLQMNSLRAEDTAVYYCARLSTGELYWGQGTLVTVSSASTKGPSVFPLAPSSKSTSGGTAALGCLVKDYFPEPVTVSWNSGALTSGVHTFPAVLQSSGLYSLSSVVTVPSSSLGTQTYICNVNHKPSNTKVDKKVEPKSCDKTHTCPPCAPELLGGPSVFLFPPKPKDTLMISRTPEVTCVVVDVSHEDPEVKFNWYVDGVEVHNAKTKPREEQYNSTYRVVSVLTVLHQDWLNGKEYKCKVSNKALPAPIEKTISKAKGQPREPQVYTLPPSPREPQVYTLPPSRDELTKNQVSLTCLVKGFYPSDIAVEWESNGQPENNYKTTPPVLDSDGSFFLYSKLTVDKSRWQQGNVFSCSVMHEALHNHYTQKSLSLSPGK
light: QSALTQPASVSGSPGQSITISCTGTGSDVGSYNLVSWYQQHPGKAPKLMIYGDSQRPSGVSNRFSGSKSGNTASLTISGLQAEDEADYYCCSYAGSGIYVFGTGTKVTVLGQPKANPTVTLFPPSSEELQANKATLVCLISDFYPGAVTVAWKADGSPVKAGVETTKPSKQSNNKYAASSYLSLTPEQWKSHRSYSCQVTHEGSTVEKTVAPTECS
notes: also called Germlined M90-F11 (GL)
B2 was tested, and the Kd [17] was 35.2 nM, the koff [17] was 0.0152 s⁻¹ and the kon [17] was 433000 M⁻¹ s⁻¹. The Kd [18] was 29.9 nM, the koff [18] was 0.0172 s⁻¹ and the kon [18] was 574000 M⁻¹ s⁻¹. For the same binder, the IC50 [19] was 0.38 nM, the Kd [20] was 0.172 nM and the koff [20] was 0.000764 s⁻¹. The kon [20] was 4.45e+06 M⁻¹ s⁻¹, the Kd [21] was 0.779 nM and the koff [21] was 0.000776 s⁻¹. The kon [21] was 996000 M⁻¹ s⁻¹.

B3: DX-2500 (germlined LC & allotype HC changes) (antibody)
heavy: EVQLLESGGGLVQPGGSLRLSCAASGFTFSEYAMGWVRQAPGKGLEWVSSIGSSGGQTKYADSVKGRFTISRDNSKNTLYLQMNSLRAEDTAVYYCARLSTGELYWGQGTLVTVSSASTKGPSVFPLAPSSKSTSGGTAALGCLVKDYFPEPVTVSWNSGALTSGVHTFPAVLQSSGLYSLSSVVTVPSSSLGTQTYICNVNHKPSNTKVDKRVEPKSCDKTHTCPPCAPELLGGPSVFLFPPKPKDTLMISRTPEVTCVVVDVSHEDPEVKFNWYVDGVEVHNAKTKPREEQYNSTYRVVSVLTVLHQDWLNGKEYKCKVSNKALPAPIEKTISKAKGQPREPQVYTLPPSPREPQVYTLPPSREEMTKNQVSLTCLVKGFYPSDIAVEWESNGQPENNYKTTPPVLDSDGSFFLYSKLTVDKSRWQQGNVFSCSVMHEALHNHYTQKSLSLSPGK
light: QSALTQPASVSGSPGQSITISCTGTGSDVGSYNLVSWYQQHPGKAPKLMIYGDSQRPSGVSNRFSGSKSGNTASLTISGLQAEDEADYYCCSYAGSGIYVFGTGTKVTVLGQPKANPTVTLFPPSSEELQANKATLVCLISDFYPGAVTVAWKADGSPVKAGVETTKPSKQSNNKYAASSYLSLTPEQWKSHRSYSCQVTHEGSTVEKTVAPTECS
notes: IgG, F allotype; 13 amino acid changes against parent M90-F11
Binder B3 has a Kd [18] of 27.6 nM, a koff [18] of 0.0177 s⁻¹ and a kon [18] of 642000 M⁻¹ s⁻¹. For the same binder, the IC50 [19] was 0.65 nM, the Kd [20] was 0.16 nM and the koff [20] was 0.000336 s⁻¹. For the same binder, the kon [20] was 2.11e+06 M⁻¹ s⁻¹, the “K off Fold improvement over DX2500” value [22] was 1 fold and the “K off Fold improvement over M90-F11” value [22] was 0.15 fold. For the same binder, the “KD Fold improvement over DX2500” value [22] was 1 fold, the “KD Fold improvement over M90-F11” value [22] was 0.21 fold and the Kd [22] was 87.9 nM. The koff [22] was 0.0197 s⁻¹, the kon [22] was 224000 M⁻¹ s⁻¹ and the Kd [21] was 0.268 nM. For the same binder, the koff [21] was 0.000338 s⁻¹ and the kon [21] was 1.26e+06 M⁻¹ s⁻¹.
